First the molecules themselves.
B2: XcpW (28–237), soluble truncation of the minor pseudopilin XcpW (domain or fragment)
chain: RMFDSVMQTDQATRVQEQRMRELVRAMGALERDLTQAVERPVRDELGDNRGAFLSEGENDQIVEFTRGGWRNPLGQARSRLQRVRWSLSGETLERRYWLVLDRAQDSKPRVQQVLDGVTALSWRFLDKEHNWQGHWPTDEGSEEERLESLPLAVEMTLEHRHYGKLVRVWRLLDPPLKQDQPQGQPGGENGENGEGGVPQPPEGMPGAPE
notes: XcpW, minor pseudopilin of the type II secretion system, Pseudomonas aeruginosa PAO1, residues 28-237; Tags removed by TEV protease; residues left from the TEV site and the cloning site may remain at the N-terminus; In the crystals the complex was under in situ chymotrypsin proteolysis; source: E. coli (BL21 (DE3); results say codon plus cells), purified (Ni-NTA, TEV cleavage, second Ni-NTA, SEC …)

Test [1] deals with T1, XcpX (29–313), soluble truncation of the minor pseudopilin XcpX (Pseudomonas aeruginosa PAO1, UniProt Q00518 29-313).
T1 construct: XcpX, minor pseudopilin of the type II secretion system, Pseudomonas aeruginosa PAO1, residues 29-313; Tags removed by TEV protease; residues left from the TEV site and the cloning site may remain at the N-terminus; In the crystals the complex was under in situ chymotrypsin proteolysis; some loops are missing in the model of 6UTU; source: E. coli (BL21 (DE3); results say codon plus cells), …
T1 sequence: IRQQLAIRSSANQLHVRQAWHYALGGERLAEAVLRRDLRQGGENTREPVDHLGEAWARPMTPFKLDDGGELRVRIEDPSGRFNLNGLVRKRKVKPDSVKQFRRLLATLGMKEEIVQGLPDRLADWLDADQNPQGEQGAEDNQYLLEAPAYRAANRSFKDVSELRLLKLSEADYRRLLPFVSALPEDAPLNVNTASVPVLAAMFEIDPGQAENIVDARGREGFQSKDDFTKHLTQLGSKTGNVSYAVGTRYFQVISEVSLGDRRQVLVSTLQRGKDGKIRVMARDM
Put plainly: SEC; three purified tag-free pseudopilins mixed at a molar ratio of 1.5:1:1 (XcpV:XcpW:XcpX), 4 °C overnight; Superdex 75, 25 mM HEPES pH 7.0, 150 mM NaCl, 1 mM CaCl2; peak fractions analysed by SDS-PAGE. As to conditions: both partners purified.

Test [2] has as its target B2. The test is described as above. To be noted: both partners purified.

B1: XcpV (28–129), soluble truncation of the minor pseudopilin XcpV (domain or fragment)
chain: SASARSLQNASRLEDKTLAMWIADNRLNELQLEQTPPSSGRNQGELEFAGRRWEWRTQVDSTAEQDMRRVIVWVAAKPLGRERGSIEERAAARLVGFLGSQP
notes: XcpV, minor pseudopilin of the type II secretion system, Pseudomonas aeruginosa PAO1, residues 28-129; Tags removed by TEV protease; residues left from the TEV site and the cloning site may remain at the N-terminus; In the crystals the complex was under in situ chymotrypsin proteolysis; loops 59-66 and 103-113 are missing in the model of 6UTU; source: E. coli (BL21 (DE3)); results say codon plus …
Broadly, the stoichiometry N is the number of molecules, sites or subunits per partner or assembly. Regarding B1, the “stoichiometry N” value in test [1] and in test [2] was approximately 1 throughout.
With B2, in test [1], the “stoichiometry N” value was approximately 1.
